Experimental data from the supplement of paper PMC10724198.
± gives the standard deviation of the averaged measurements.

Assays:
Saccharomyces cerevisiae [1] = test: protein stability index of tFT-peptide fusion (C-terminal peptide) (PSI (0-1 scale)); higher = more stable (slower turnover)
Protocol: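 MPS profiling in S. cerevisiae of the tFT-X12 degron library: putative degron peptides plus stable controls, 12 aa, fused to the C-terminus of a sfGFP-mCherry timer. Cells are FACS-sorted into 8 mCherry/sfGFP bins and deep-sequenced. PSI runs from 0 (unstable) to 1 (stable). Backgrounds are wild type, das1Δ and doa10Δ at 30 °C, and wild type, das1Δ, cdc34-1 and cdc53-1 at 37 °C; 2-3 technical replicates each.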

Saccharomyces cerevisiae [2] = test: as above; conditions: genetic background: wild type; temperature: 30 C
[3] = genetic background: cdc34-1, temperature: 37 C
[4] = genetic background: cdc53-1, temperature: 37 C
[5] = genetic background: das1 deletion, temperature: 30 C
[6] = genetic background: das1 deletion, temperature: 37 C
[7] = genetic background: doa10 deletion, temperature: 30 C
[8] = genetic background: wild type, temperature: 30 C
[9] = genetic background: wild type, temperature: 37 C
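Note: PSI is a weighted mean of sequencing reads over stability bins, variants kept only with over 10 reads, mCherry proximal and sfGFP distal, peptide attached via GGGS linker.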

Sequence | protein stability index (Saccharomyces cerevisiae [1]; [3]) | protein stability index (Saccharomyces cerevisiae [1]; [4]) | protein stability index (Saccharomyces cerevisiae [1]; [5]) | protein stability index (Saccharomyces cerevisiae [1]; [6]) | protein stability index (Saccharomyces cerevisiae [1]; [7]) | protein stability index (Saccharomyces cerevisiae [1]; [8]) | protein stability index (Saccharomyces cerevisiae [1]; [9]) | protein stability index (Saccharomyces cerevisiae [2])
DDESLVGRWRKV | 0.647 ± 0.011 | 0.7263 ± 0.00098 | 0.6402 ± 0.0045 | 0.738 ± 0.011 | 0.25 ± 0.0057 | 0.313 ± 0.014 | 0.547 ± 0.019 | 0.365 ± 0.11
DFPGDIILRLIA | 0.576 ± 0.041 | 0.748 ± 0.044 | 0.635 ± 0.014 | 0.728 ± 0.025 | 0.139 ± 0.0097 | 0.155 ± 0.0082 | 0.214 ± 0.069 | 0.207 ± 0.11
DLAWAIGRLTKG | 0.72 ± 0.02 | 0.769 ± 0.033 | 0.654 ± 0.029 | 0.761 ± 0.016 | 0.653 ± 0.011 | 0.652 ± 0.0094 | 0.743 ± 0.013 | 0.568 ± 0.2
DLPKAYCIEMIG | 0.6033 ± 0.0055 | 0.718 ± 0.015 | 0.613 ± 0.034 | 0.7187 ± 0.005 | 0.198 ± 0.029 | 0.215 ± 0.023 | 0.432 ± 0.02 | 0.328 ± 0.027
DNLYSLEFMAIR | 0.719 ± 0.04 | 0.78 ± 0.016 | 0.647 ± 0.021 | 0.7875 ± 0.0042 | 0.655 ± 0.025 | 0.645 ± 0.012 | 0.7796 ± 0.004 | 0.566 ± 0.19
DPPRPIMRIHMI | 0.553 ± 0.065 | 0.651 ± 0.042 | 0.671 ± 0.059 | 0.719 ± 0.016 | 0.115 ± 0.021 | 0.111 ± 0.015 | 0.171 ± 0.027 | 0.181 ± 0.0027
DSPRGRCVRLLV | 0.66041 ± 1.4e-06 | 0.74745 ± 0.00025 | 0.646 ± 0.013 | 0.741 ± 0.017 | 0.253 ± 0.0077 | 0.308 ± 0.0036 | 0.599 ± 0.067 | 0.398 ± 0.03
DWCACFFILLLA | 0.0391 ± 0.0052 | 0.0382 ± 0.012 | 0.117 ± 0.026 | 0.17 ± 0.016 | 0.145 ± 0.0095 | 0.0983 ± 0.018 | 0.111 ± 0.028 | 0.152 ± 0.019
DWTVSYLWVTAL | 0.534 ± 0.042 | 0.592 ± 0.019 | 0.469 ± 0.025 | 0.599 ± 0.006 | 0.185 ± 0.0044 | 0.208 ± 0.0091 | 0.385 ± 0.02 | 0.331 ± 0.015
ECCKRFCCRFVA | 0.627 ± 0.038 | 0.6982 ± 0.0042 | 0.644 ± 0.0065 | 0.73 ± 0.018 | 0.231 ± 0.0082 | 0.256 ± 0.021 | 0.4002 ± 0.0022 | 0.338 ± 0.044
EERKIFLKVVKV | 0.545 ± 0.036 | 0.496 ± 0.016 | 0.398 ± 0.025 | 0.5748 ± 0.0007 | 0.218 ± 0.021 | 0.305 ± 0.027 | 0.4656 ± 0.0028 | 0.463 ± 0.0094
EGGLGDRLLGVG | 0.526 ± 0.035 | 0.577 ± 0.0092 | 0.501 ± 0.0078 | 0.573 ± 0.021 | 0.5161 ± 0.0024 | 0.518 ± 0.016 | 0.547 ± 0.0066 | 0.47 ± 0.015
EMISRNVFTYLS | 0.684 ± 0.037 | 0.755 ± 0.012 | 0.619 ± 0.034 | 0.773 ± 0.023 | 0.394 ± 0.034 | 0.42 ± 0.023 | 0.6266 ± 0.0049 | 0.473 ± 0.03
EMPRLSKAIRVT | 0.5407 ± 0.00036 | 0.5702 ± 0.0053 | 0.371 ± 0.026 | 0.603 ± 0.011 | 0.279 ± 0.0047 | 0.314 ± 0.028 | 0.4961 ± 0.0028 | 0.44 ± 0.029
EVGTMALISCSV | 0.3854 ± 0.001 | 0.356 ± 0.084 | 0.319 ± 0.05 | 0.458 ± 0.022 | 0.252 ± 0.019 | 0.288 ± 0.034 | 0.427 ± 0.039 | 0.428 ± 0.034
EWSRVVRWNWDG | 0.528 ± 0.046 | 0.69857 ± 0.00044 | 0.637 ± 0.011 | 0.707 ± 0.0084 | 0.121 ± 0.0082 | 0.148 ± 0.014 | 0.266 ± 0.015 | 0.254 ± 0.027
FALVSLSFALVE | 0.4203 ± 0.00048 | 0.457 ± 0.019 | 0.306 ± 0.025 | 0.518 ± 0.0066 | 0.28 ± 0.0036 | 0.292 ± 0.036 | 0.472 ± 0.02 | 0.379 ± 0.034
FAVHHLRYILLV | 0.227 ± 0.029 | 0.325 ± 0.019 | 0.316 ± 0.024 | 0.436 ± 0.0073 | 0.0929 ± 0.009 | 0.0847 ± 0.024 | 0.129 ± 0.016 | 0.106 ± 0.016
FCCSVFCFLCLY | 0.562 ± 0.044 | 0.548 ± 0.02 | 0.505 ± 0.027 | 0.572 ± 0.0057 | 0.5442 ± 0.001 | 0.492 ± 0.0071 | 0.518 ± 0.019 | 0.504 ± 0.049
FCGLLGVCLVMG | 0.208 ± 0.042 | 0.298 ± 0.006 | 0.243 ± 0.032 | 0.389 ± 0.013 | 0.185 ± 0.016 | 0.221 ± 0.03 | 0.354 ± 0.011 | 0.326 ± 0.032

Sequence | protein stability index (Saccharomyces cerevisiae [1]; [3]) | protein stability index (Saccharomyces cerevisiae [1]; [4]) | protein stability index (Saccharomyces cerevisiae [1]; [5]) | protein stability index (Saccharomyces cerevisiae [1]; [6]) | protein stability index (Saccharomyces cerevisiae [1]; [7]) | protein stability index (Saccharomyces cerevisiae [1]; [8]) | protein stability index (Saccharomyces cerevisiae [1]; [9]) | protein stability index (Saccharomyces cerevisiae [2])
FCHFSSLVSVSL | 0.614 ± 0.011 | 0.6089 ± 0.0042 | 0.498 ± 0.024 | 0.6377 ± 0.0016 | 0.494 ± 0.021 | 0.496 ± 0.018 | 0.611 ± 0.025 | 0.577 ± 0.18
FCLLRYPFVGVL | 0.625 ± 0.047 | 0.683 ± 0.025 | 0.554 ± 0.022 | 0.677 ± 0.025 | 0.272 ± 0.0032 | 0.318 ± 0.0089 | 0.514 ± 0.0069 | 0.415 ± 0.013
FCSNLLSMVIAV | 0.344 ± 0.0055 | 0.382 ± 0.014 | 0.32 ± 0.032 | 0.4315 ± 0.0038 | 0.265 ± 0.012 | 0.3 ± 0.012 | 0.438 ± 0.029 | 0.432 ± 0.014
FCVGVLFSCLVF | 0.338 ± 0.041 | 0.412 ± 0.032 | 0.313 ± 0.021 | 0.4295 ± 0.0031 | 0.286 ± 0.0042 | 0.301 ± 0.019 | 0.43 ± 0.023 | 0.394 ± 0.019
FCVGVVIQLSGV | 0.435 ± 0.053 | 0.491 ± 0.034 | 0.311 ± 0.035 | 0.499 ± 0.0053 | 0.296 ± 0.0032 | 0.326 ± 0.021 | 0.473 ± 0.014 | 0.415 ± 0.0067
FCVLLFYCFFFF | 0.322 ± 0.011 | 0.322 ± 0.099 | 0.276 ± 0.039 | 0.38 ± 0.0096 | 0.314 ± 0.012 | 0.273 ± 0.032 | 0.335 ± 0.041 | 0.356 ± 0.03
FERKVHSRWLFF | 0.56888 ± 0.00051 | 0.745 ± 0.022 | 0.658 ± 0.011 | 0.7407 ± 0.00086 | 0.0981 ± 0.019 | 0.15 ± 0.016 | 0.437 ± 0.018 | 0.23 ± 0.038
FFATFVPSFLLC | 0.606 ± 0.023 | 0.674 ± 0.048 | 0.556 ± 0.02 | 0.6776 ± 0.00086 | 0.268 ± 0.0089 | 0.305 ± 0.022 | 0.511 ± 0.021 | 0.407 ± 0.033
FFCYFFEFFICG | 0.326 ± 0.054 | 0.419 ± 0.013 | 0.339 ± 0.028 | 0.468 ± 0.0082 | 0.337 ± 0.015 | 0.323 ± 0.011 | 0.441 ± 0.025 | 0.382 ± 0.017
FFFVFLGLRSVF | 0.348 ± 0.019 | 0.358 ± 0.084 | 0.357 ± 0.04 | 0.577 ± 0.11 | 0.339 ± 0.011 | 0.292 ± 0.016 | 0.434 ± 0.012 | 0.387 ± 0.049
FFGFFWLFLLFC | 0.239 ± 0.022 | 0.222 ± 0.005 | 0.291 ± 0.021 | 0.364 ± 0.016 | 0.318 ± 0.019 | 0.202 ± 0.033 | 0.257 ± 0.02 | 0.267 ± 0.0029
FFIVGACAYVFA | 0.223 ± 0.036 | 0.30494 ± 0.00019 | 0.228 ± 0.031 | 0.385 ± 0.0094 | 0.204 ± 0.013 | 0.231 ± 0.029 | 0.37 ± 0.015 | 0.319 ± 0.033
FFLLLVSVLSGW | 0.177 ± 0.035 | 0.255 ± 0.047 | 0.198 ± 0.017 | 0.3301 ± 0.00052 | 0.152 ± 0.02 | 0.185 ± 0.029 | 0.2942 ± 0.00091 | 0.316 ± 0.038
FFPFHPHVLRLL | 0.421 ± 0.044 | 0.433 ± 0.014 | 0.477 ± 0.039 | 0.6373 ± 0.0012 | 0.215 ± 0.0068 | 0.203 ± 0.026 | 0.324 ± 0.014 | 0.282 ± 0.053
FFRAYLQMYVTD | 0.412 ± 0.0053 | 0.471 ± 0.021 | 0.413 ± 0.029 | 0.4057 ± 0.0032 | 0.423 ± 0.032 | 0.416 ± 0.043 | 0.412 ± 0.0073 | 0.362 ± 0.018
FFVFLVLFCLWV | 0.278 ± 0.027 | 0.259 ± 0.065 | 0.302 ± 0.035 | 0.397 ± 0.008 | 0.321 ± 0.022 | 0.261 ± 0.031 | 0.356 ± 0.0055 | 0.391 ± 0.076
FFVFMAKLRTCN | 0.455 ± 0.042 | 0.536 ± 0.034 | 0.444 ± 0.025 | 0.594 ± 0.0073 | 0.112 ± 0.019 | 0.127 ± 0.025 | 0.198 ± 0.029 | 0.0754 ± 0.063
FFVFYICSCFLV | 0.444 ± 0.037 | 0.476 ± 0.0043 | 0.389 ± 0.02 | 0.4843 ± 0.0041 | 0.457 ± 0.0071 | 0.372 ± 0.0097 | 0.442 ± 0.024 | 0.4 ± 0.047
FFYVFPFFIFRF | 0.338 ± 0.046 | 0.31 ± 0.031 | 0.364 ± 0.04 | 0.521 ± 0.017 | 0.505 ± 0.025 | 0.362 ± 0.058 | 0.449 ± 0.0095 | 0.406 ± 0.065
